According to PMC12577854, “CsUGT89A2 enhances tea plant resistance to Toxoptera aurantia by mediating flavonoid glycosides biosynthesis” (Horticulture Research, 2025):

How the values were obtained:
Assay in all cases: HPLC assay of 7-O-glucoside formation
Format in all cases: biochemical, Camellia sinensis
Details in all cases: 2.5 mM UDP-glucose, pH 8.0, 40°C
[1] = system: T1, O=c1cc(-c2ccc(O)c(O)c2)oc2cc(O)cc(O)c12
T1 construct: Ni-TED purified (methods say amylose resin)

[2] = system: T2, O=c1c(O)c(-c2ccc(O)c(O)c2)oc2cc(O)cc(O)c12
T2 construct: Ni-TED purified (methods say amylose resin)

[3] = system: T3, O=c1c(O)c(-c2ccc(O)cc2)oc2cc(O)cc(O)c12
T3 construct: Ni-TED purified (methods say amylose resin)

[4] = system: T4, O=c1cc(-c2ccc(O)cc2)oc2cc(O)cc(O)c12
T4 construct: Ni-TED purified (methods say amylose resin)

Substance: rCsUGT89A2 (CsUGT89A2, LOC114303213) (Camellia sinensis var. sinensis)
- Km [1]: 76.4 µM
- Km [2]: 106.0 µM
- Km [3]: 164.5 µM
- Km [4]: 46.3 µM
